Measured values published in PMC3349339 (Journal of Molecular Biology, 2012).

Columns and labels:
[1] = molecular target: HLA-DR1 with a His→Asn substitution at position β81 (human)
[2] = molecular target: β81mut (HLA-DR1 with His→Asn substitution at position β81) (Homo sapiens, UniProt P01903+P01911, A100R/D57E/F55L/F60I/F76Y/H110N/I96L/L162R/M171V/P40L/Q125E/R42F/V115G/Y59C); experiment: Fluorescence polarization dissociation measurements, β81mut; type: binding; conditions: FP peptide release, 37 °C, pH 5
wtDR1 = experiment: Fluorescence polarization dissociation measurements, wtDR1; type: binding, human; conditions: FP peptide release, 37 °C, pH 5
[3] = molecular target: HLA-DR1 with a His→Asn substitution at position β81 (human); experiment: fluorescence polarisation

| Substance | Kd [1] [nM] | Stable binding allowing off-rate measurements, β81mut [2] | Stable binding allowing off-rate measurements, wtDR1 (wtDR1) | t1/2 [3] [h] |
| --- | --- | --- | --- | --- |
| HA_(306-319) peptide | 50.6 | – | – | – |
| P2,3 SD: HA306-319-derived peptide substituted at P2 and P3 (GPKYSDQNTLKLAT) | – | this was not possible | could bind in a stable fashion | – |
| fluorescein-labelled HA_(306-319) peptide | – | – | – | 77.3 |
| P3,10 DG: HA306-319-derived peptide substituted at P3 and P10 (GPKYVDQNTLKLGT) | – | this was not possible | could bind in a stable fashion | – |
